Assay results from patent publication US20130302348A1 (MIT, published 2013).

Assays:
[1] = target: biotinylated H1 (A/Solomon Islands/03/06) HA polypeptide (influenza virus A/Solomon Islands/03/06)
[2] = target: HA of H1N1 influenza strain PR8 (A/Puerto Rico/8/34) (influenza virus A/Puerto Rico/8/34 …, UniProt P03452 18-565); test: cell-based or functional assay
[3] = target: T1, BSA (Bos taurus, UniProt P02769); test: ELISA, KD table (Example 2)
T1 construct: also called 1% BSA

[4] = target: HA polypeptide of subtype H1 (Example 1 ELISA) (influenza virus, strain ); test: ELISA on HA-coated plate, KD from a fit of fractional saturation (Example 2)
[5] = target: HA polypeptide of subtype H3 (Example 1 ELISA) (influenza virus, strain ); test: as above

T1 sequence (P02769 25-607 limits assumed): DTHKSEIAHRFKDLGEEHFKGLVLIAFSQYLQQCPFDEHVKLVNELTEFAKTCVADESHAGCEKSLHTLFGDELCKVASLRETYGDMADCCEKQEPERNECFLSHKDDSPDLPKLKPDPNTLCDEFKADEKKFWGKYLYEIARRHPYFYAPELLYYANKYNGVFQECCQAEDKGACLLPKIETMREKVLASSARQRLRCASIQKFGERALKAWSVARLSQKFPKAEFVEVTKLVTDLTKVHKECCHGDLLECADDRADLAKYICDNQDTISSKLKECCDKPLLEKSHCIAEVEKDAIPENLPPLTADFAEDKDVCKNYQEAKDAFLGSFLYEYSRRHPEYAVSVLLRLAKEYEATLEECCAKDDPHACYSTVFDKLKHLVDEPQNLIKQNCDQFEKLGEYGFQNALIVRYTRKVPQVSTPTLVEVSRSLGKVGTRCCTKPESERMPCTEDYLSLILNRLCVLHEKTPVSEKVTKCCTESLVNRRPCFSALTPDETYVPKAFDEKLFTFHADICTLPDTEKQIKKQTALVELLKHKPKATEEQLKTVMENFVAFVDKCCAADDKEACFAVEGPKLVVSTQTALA

B1: exemplary antibody (VH-1 combined with VL-1; Table 4) (antibody, V domains shown)
VH: EVQLLESGGGLVKPGQSLKLSCAASGFTFTSYGMHWVRQPPGKGLEWVAVISYDGSYKYYADSVQGRFTISRDNSKNTLYLQMNSLRAEDTAVYYCAKDSELRSLLYFEWLSQGYFNPWGAGTTLTVSS
VL: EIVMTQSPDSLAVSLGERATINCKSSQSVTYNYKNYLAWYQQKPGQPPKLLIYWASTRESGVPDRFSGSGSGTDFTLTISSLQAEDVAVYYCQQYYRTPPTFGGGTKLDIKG
notes: also called exemplary influenza antibody
In the case of B1, the kon [1] is reported as 297000 M⁻¹ s⁻¹, the “IC50, microneutralization assay followed by qPCR of viral yield in MDCK cells” value [2] is reported as 0.5 µg/mL and the binding result [3] is reported as “no binding”. For the same binder, the Kd [4] was 0.074 nM and the Kd [5] was 37.2 nM.
